Assay results reported in patent publication US20240425837A1 (Novo Nordisk, published 2024).
No end group written: not given here.

Columns and labels:
Assay in all cases: ELISA, biotinylated 12-mer peptide on streptavidin, 2 ug/mL FLAG-tagged VHH, anti-FLAG-HRP
[1] = target: T1, FX activation peptide 12-mer TSSSGEAPDSIT (SEQ ID NO:698) (human)
T1 peptide: TSSSGEAPDSIT-biotin
Method: (§1) To determine whether the binding epitope of the anti-FX VHH polypeptide designated “cmpd #1” are located inside the activation peptide (AP) of human FX (SEQ ID NO:2), an ELISA assay was setup. 41 unique 12-mer peptide fragments spanning the 52 residues of the activation peptide with one amino acid spacing were immobilized in microtiter plate wells followed by incubation with the VHH polypeptide to be tested, and detection of bound ligand was performed by addition of a secondary HRP-labelled antibody.
(§2) The peptides were C-terminally conjugated to biotin and 50 μL of 1 μg/mL peptide solution was used for immobilization in discrete wells of the microtiter plate which was pre-coated with 1 μg/mL streptavidin. Each well was washed with washing buffer (10 mM Tris, 150 mM NaCl, 2.5 mM CaCl₂, 0.05% Tween 20, pH 8.60) followed by addition of 50 μL of 2 μg/mL FLAG-tagged anti-FX VHH polypeptide or IgG antibody to be tested. After 1 hour non-bound VHH polypeptide was washed off using washing buffer.
(§3) Bound anti-FX activation peptide ligand was detected by first binding a HRP-labelled secondary antibody (for FLAG-tagged VHH polypeptide: Anti-FLAG mAb M2-Peroxidase (HRP) (Sigma Aldrich, US) for 1 hour, and then adding 100 μL TMB-1 ELISA substrate (Kem-En-Tec Diagnostics, Denmark).

[2] = target: T2, FX activation peptide 12-mer DPTENPFDLLDF (SEQ ID NO:719) (human)
T2 peptide: DPTENPFDLLDF-biotin
Method: as §1, §2, §3

[3] = target: T3, FX activation peptide 12-mer KPYDAADLDPTE (SEQ ID NO:711) (human)
T3 peptide: KPYDAADLDPTE-biotin
Method: as §1, §2, §3

[4] = target: T4, FX activation peptide 12-mer DAADLDPTENPF (SEQ ID NO:714) (human)
T4 peptide: DAADLDPTENPF-biotin
Method: as §1, §2, §3

[5] = target: T5, FX activation peptide 12-mer ENPFDLLDFNQT (SEQ ID NO:722) (human)
T5 peptide: ENPFDLLDFNQT-biotin
Method: as §1, §2, §3

[6] = target: T6, FX activation peptide 12-mer SITWKPYDAADL (SEQ ID NO:707) (human)
T6 peptide: SITWKPYDAADL-biotin
Method: as §1, §2, §3

[7] = target: T7, FX activation peptide 12-mer DLLDFNQTQPER (SEQ ID NO:726) (human)
T7 peptide: DLLDFNQTQPER-biotin
Method: as §1, §2, §3

[8] = target: T8, FX activation peptide 12-mer QATSSSGEAPDS (SEQ ID NO:696) (human)
T8 peptide: QATSSSGEAPDS-biotin
Method: as §1, §2, §3

[9] = target: T9, FX activation peptide 12-mer WKPYDAADLDPT (SEQ ID NO:710) (human)
T9 peptide: WKPYDAADLDPT-biotin
Method: as §1, §2, §3

[10] = target: T10, FX activation peptide 12-mer PFDLLDFNQTQP (SEQ ID NO:724) (human)
T10 peptide: PFDLLDFNQTQP-biotin
Method: as §1, §2, §3

[11] = target: T11, FX activation peptide 12-mer GEAPDSITWKPY (SEQ ID NO:702) (human)
T11 peptide: GEAPDSITWKPY-biotin
Method: as §1, §2, §3

[12] = target: T12, FX activation peptide 12-mer ITWKPYDAADLD (SEQ ID NO:708) (human)
T12 peptide: ITWKPYDAADLD-biotin
Method: as §1, §2, §3

[13] = target: T13, FX activation peptide 12-mer SGEAPDSITWKP (SEQ ID NO:701) (human)
T13 peptide: SGEAPDSITWKP-biotin
Method: as §1, §2, §3

[14] = target: T14, FX activation peptide 12-mer SVAQATSSSGEA (SEQ ID NO:693) (human)
T14 peptide: SVAQATSSSGEA-biotin
Method: as §1, §2, §3

[15] = target: T15, FX activation peptide 12-mer AQATSSSGEAPD (SEQ ID NO:695) (human)
T15 peptide: AQATSSSGEAPD-biotin
Method: as §1, §2, §3

[16] = target: T16, FX activation peptide 12-mer DLDPTENPFDLL (SEQ ID NO:717) (human)
T16 peptide: DLDPTENPFDLL-biotin
Method: as §1, §2, §3

[17] = target: T17, FX activation peptide 12-mer NPFDLLDFNQTQ (SEQ ID NO:723) (human)
T17 peptide: NPFDLLDFNQTQ-biotin
Method: as §1, §2, §3

[18] = target: T18, FX activation peptide 12-mer QTQPERGDNNLT (SEQ ID NO:732) (human)
T18 peptide: QTQPERGDNNLT-biotin
Method: as §1, §2, §3

ELISA signal normalized relative to the background signal [1]: 0.77 fold of background
ELISA signal normalized relative to the background signal [2]: 4.16 fold of background
ELISA signal normalized relative to the background signal [3]: 0.8 fold of background
ELISA signal normalized relative to the background signal [4]: 0.88 fold of background
ELISA signal normalized relative to the background signal [5]: 4 fold of background
ELISA signal normalized relative to the background signal [6]: 1.08 fold of background
ELISA signal normalized relative to the background signal [7]: 3.08 fold of background
ELISA signal normalized relative to the background signal [8]: 0.96 fold of background
ELISA signal normalized relative to the background signal [9]: 0.89 fold of background
ELISA signal normalized relative to the background signal [10]: 4.95 fold of background
ELISA signal normalized relative to the background signal [11]: 0.93 fold of background
ELISA signal normalized relative to the background signal [12]: 1.1 fold of background
ELISA signal normalized relative to the background signal [13]: 0.88 fold of background
ELISA signal normalized relative to the background signal [14]: 0.96 fold of background
ELISA signal normalized relative to the background signal [15]: 0.97 fold of background
ELISA signal normalized relative to the background signal [16]: 1 fold of background
ELISA signal normalized relative to the background signal [17]: 3.13 fold of background
B1: Cmpd #1 (monovalent anti-FX VHH polypeptide, VHH-1.1) (VHH)
VHH: EVQLVESGGGLVQPGGSLRLSCAASGSIGAFDAMGWYRQAPGKQRELVAGIMVSRGNTNYTDSVKGRFTISRDNAKNTVYLQMNSLKPEDTAVYYCKAVKRPGPGYLEVWGQGTLVTVSS
notes: no protractor; FLAG-tagged in the peptide ELISA
ELISA signal normalized relative to the background signal [18]: 0.88 fold of background
